Legend:
Human CDH6-ECD-His = molecular target: T1, Human CDH6-ECD-His (human, UniProt P55285 54-615); test: BLI (Octet), antibody on AHC sensor, antigen 3.13-100 nM, 1:1 model
T1 construct: extracellular domain; Bought protein; also called human CDH6-ECD-His recombinant protein; Human CDH6-EC6D-His; not shown: His tag
T1 sequence (looked up): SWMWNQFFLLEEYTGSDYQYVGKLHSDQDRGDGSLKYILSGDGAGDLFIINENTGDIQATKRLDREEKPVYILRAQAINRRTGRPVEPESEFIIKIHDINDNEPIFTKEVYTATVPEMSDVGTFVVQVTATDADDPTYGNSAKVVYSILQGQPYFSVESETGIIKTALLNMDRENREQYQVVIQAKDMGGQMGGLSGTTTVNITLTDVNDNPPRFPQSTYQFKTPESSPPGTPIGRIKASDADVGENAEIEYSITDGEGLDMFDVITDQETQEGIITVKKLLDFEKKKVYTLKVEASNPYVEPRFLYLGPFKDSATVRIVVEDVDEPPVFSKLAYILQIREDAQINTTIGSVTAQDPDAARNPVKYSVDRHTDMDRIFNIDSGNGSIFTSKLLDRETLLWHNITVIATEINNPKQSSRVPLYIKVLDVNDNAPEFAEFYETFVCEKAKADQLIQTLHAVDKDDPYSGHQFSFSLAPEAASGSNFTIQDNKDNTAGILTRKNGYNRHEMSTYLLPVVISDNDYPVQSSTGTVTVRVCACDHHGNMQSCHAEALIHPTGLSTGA
Protocol: Binding affinities of CL069707-H1L1 and Ch069707 were measured using the Octet® system based on Bio-Layer Interferometry (BLI) technique. Antibodies were loaded to AHC (Anti-hIgG Fc Capture) at 100 nM concentration. […] From the six different binding curves obtained from each antigen concentration, binding constants (KD) were calculated based on the 1:1 binding model. CL069707-H1L1 and Ch069707 binds to human CDH6-ECD-His antigen with similar affinity. CL069707-H1L1 binds to human CDH6-ECD-His and cyno monkey CDH6-ECD-His antigens with similar affinity.

human CDH9-ECD-His = molecular target: T2, human CDH9-ECD-His (human, UniProt Q9ULB4 54-615); test: ELISA, antigen coated at 1 ug/mL, 3-fold dilutions of CL069707-H1L1, HRP anti-human antibody, OD450
T2 construct: extracellular domain; Bought protein; also called CDH9-ECD-His protein; not shown: His tag
T2 sequence (looked up): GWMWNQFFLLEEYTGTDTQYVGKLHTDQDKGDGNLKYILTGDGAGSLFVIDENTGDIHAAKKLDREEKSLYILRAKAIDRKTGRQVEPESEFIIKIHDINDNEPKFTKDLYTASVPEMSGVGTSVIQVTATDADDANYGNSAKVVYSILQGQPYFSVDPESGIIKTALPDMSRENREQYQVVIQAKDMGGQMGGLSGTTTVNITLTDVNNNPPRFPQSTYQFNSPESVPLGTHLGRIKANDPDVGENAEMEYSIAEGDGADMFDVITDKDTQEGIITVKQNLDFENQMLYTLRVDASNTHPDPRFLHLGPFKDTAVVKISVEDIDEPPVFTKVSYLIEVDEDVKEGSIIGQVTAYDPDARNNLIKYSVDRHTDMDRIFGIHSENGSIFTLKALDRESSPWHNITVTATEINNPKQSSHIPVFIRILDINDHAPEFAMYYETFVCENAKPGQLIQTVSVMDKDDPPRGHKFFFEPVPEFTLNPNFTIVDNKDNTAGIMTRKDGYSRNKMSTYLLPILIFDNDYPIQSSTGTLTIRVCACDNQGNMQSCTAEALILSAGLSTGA
Protocol: (§1) CDH9 and […] are the most closely related family members to CDH6. Binding of CL069707-H1L1 on human CDH6, CDH9 and CDH10 ECD domains were analyzed by ELISA Binding Assay. Human […], CDH9-ECD-His and CDH10-ECD-His antigens were obtained from Acro Biosystems, Inc. 100 μL of 1 μg/mL of the antigens diluted in PBS were added to 96 well plates and incubated in 4° C. overnight. The plates were washed 3 times with 300 μL of washing buffer. Then 100 μL/well of 1% BSA blocking reagent were added to the plates, and incubated at 37° C. for 1 h then the blocking reagent were discarded. A 3-fold serial dilution of CL069707-H1L1 was added to the plates and then incubated at 37° C. for 1 h. Then the plates were washed 3 times with 300 μL of washing buffer. 100 μL/well of HRP-conjugated anti-Human antibody diluted in 1% BSA were added to the plates and then incubated at 37° C. for 1 h. The plates were washed 3 times with 300 μL of washing buffer. 100 μL/well of TMB substrate were added to the plates and incubated for about 10 min in room temperature. Then the reaction was stopped with 100 μL/well of stopping solution. OD450 was read with a plate reader and the data were processed.

human CDH10-ECD-His = molecular target: T3, human CDH10-ECD-His (human, UniProt Q9Y6N8 55-613); test: as above
T3 construct: extracellular domain; Bought protein; also called CDH10-ECD-His protein; not shown: His tag
T3 sequence (looked up): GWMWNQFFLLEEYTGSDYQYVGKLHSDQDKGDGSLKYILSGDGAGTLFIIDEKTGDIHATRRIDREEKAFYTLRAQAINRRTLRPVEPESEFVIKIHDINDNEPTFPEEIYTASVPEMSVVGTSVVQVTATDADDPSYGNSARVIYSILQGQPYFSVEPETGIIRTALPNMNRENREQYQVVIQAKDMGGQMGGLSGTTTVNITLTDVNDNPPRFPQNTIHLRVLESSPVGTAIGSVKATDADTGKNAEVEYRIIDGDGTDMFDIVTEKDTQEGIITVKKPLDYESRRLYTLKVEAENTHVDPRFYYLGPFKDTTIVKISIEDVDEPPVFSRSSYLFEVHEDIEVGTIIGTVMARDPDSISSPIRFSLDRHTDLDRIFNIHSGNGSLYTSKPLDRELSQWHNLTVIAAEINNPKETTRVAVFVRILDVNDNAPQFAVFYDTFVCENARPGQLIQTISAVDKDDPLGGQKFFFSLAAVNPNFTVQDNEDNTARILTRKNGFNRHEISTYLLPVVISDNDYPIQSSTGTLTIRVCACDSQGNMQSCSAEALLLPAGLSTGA
Protocol: as §1

B1: CL069707-H1L1 (antibody, human IgG1, kappa, V domains shown)
VH: EVQLVESGGGLVQPGGSLRLSCAASGFTFTTYAMNWVRQAPGKGLEWVARIRIKNNNYATYYADSVTDRFTISRDDSKNSLYLQMNSLKTEDTAVYYCVRPDYGNYGLAYWGQGTLVTVSS
VL: DIQLTQSPSSLSASVGDRVTITCSASSSISSHYLHWYQQKPGKSPKLLIYRSFYLASGVPSRFSGSGSGTDFTLTISSLQPEDFATYYCQQDIVPLTFGQGTKLEIKR
notes: Humanized IgG1/kappa, produced in 293 cells; also called humanized CL069707-H1L1
In the case of B1, the Kd (Human CDH6-ECD-His) is reported as 3.08 nM, the binding result (human CDH9-ECD-His) is reported as “no binding (tested: 100 nM)” and the binding result (human CDH10-ECD-His) is reported as “no binding (tested: 100 nM)”.
